Here are results for 16 sequences from the DeepSol protein solubility set.

The series can be described thus: soluble on expression in E. coli; label from the status in PepcDB or PDB records.
“GSARPSSSMADFRKFFAKAKHIVIISGAGVSAESGVPTFRGAGGYWRKWQAQDLATPLAFAHNPSRVWEFYHYRREVMGSKEPNAGHRAIAECETRLGKQGRRVVVITQNIDELHRKAGTKNLLEIHGSLFKTRCTSCGVVAENYKSPICPALSGKGAPEPGTQDASIPVEKLPRCEEAGCGGLLRPHVVWFGENLDPAILEEVDRELAHCDLCLVVGTSSVVYPAAMFAPQVAARGVPVAEFNTETTPATNRFRFHFQGPCGTTLPEALA”: the “soluble on expression in E. coli” value was “soluble”.
Consider “GSDLPIDPNEPTYCLCNQVSYGEMIGCDNDECPIEWFHFSCVGLNHKPKGKWYCPKCRGENE”, for which the “soluble on expression in E. coli” value is recorded as “soluble”.
In the case of “GSEKRQHSSQDVHVVLKLWKSGFSLDNGELRSYQDPSNAQFLESIRRGEVPAELRRLAHGGQVNLDMEDHRDEDFVKPKGAFKAFTGEGQKLGSTAPQVLST” it was “soluble”.
For the sequence “GSEPYSLTAQQSSLIREDKSNAKLWNEVLASLKDRPASGSPFQLFLSKVEETFQCICCQELVFRPITTVCQHNVCKDCLDRSFRAQVFSCPACRYDLGRSYAMQVNQPLQTVLNQLFPGYGNGR”, the “soluble on expression in E. coli” value was “soluble”.
Turning to “GSFTRFDLAIDDKKTYFSIPELLKKAQKGECISRFRKSDFNGSFDLSDGITGGTTIYFGSKKSEAYLCFYEKNYEQAEKYNIPLEELGDWNRYELRLKNERAQVAIDALLKTKDLTLIAMQIINNYVRFVDADENITREHWKTSLFWSDFIGDVGRLPLYVKPQKDFYQKSRNWLRNSCAPTMKMVLEADEHLGKTDLSDMIAEAELADKHKKMLDVYMADVADMVV”, the “soluble on expression in E. coli” value is “not soluble”.
For the sequence “GSHGGSMKAANASSAEAYRVLSRAFRFDNEDQKLWWHSTAPMFAKMLETANYTTPCQYQYLITYKECVIPSLGCYPTNSAPRWLSILTRYGTPFELSLNCSNSIVRYTFEPINQHTGTDKDPFNTHAIWESLQHLLPLEKSIDLEWFRHFKHDLTLNSEESAFLAHNDRLVGGTIRTQNKLALDLKDGRFALKTYIYPALKAVVTGKTIHELVFGSVRRLAVREPRILPPLNMLEEYIRSRGSKSTASPRLVSCDLTSPAKSRIKIYLLEQMVSLEAMEDLWTLGGRRRDASTLEGLSLVRELWDLIQLSPGLKSYPAPYLPLGVIPDERLPLMANFTLHQNDPVPEPQVYFTTFGMNDMAVADALTTFFERRGWSEMARTYETTLKSYYPHADHDKLNYLHAYISFSYRDRTPYLSVYLQSFETGDWAVANLSESKVKCQDAACQPTALPPDLSKTGVYYSGLH”, the “soluble on expression in E. coli” value is listed as “soluble”.
For the sequence “GSHHHHHHSSGLVPRGSFNELNAINENIRDDLSALLKSDFFKYFRLDLYKQCSFWDANDGLCLNRACSVDVVEDWDTLPEYWQPEILGSFNNDTMKEADDSDDECKFLDQLCQTSKKPVDIEDTINYCDVNDFNGKNAVLIDLTANPERFTGYGGKQAGQIWSTIYQDNCFTIGETGESLAKDAFYRLVSGFHASIGTHLSKEYLNTKTGKWEPNLDLFMARIGNFPDRVTNMYFNYAVVAKALWKIQPYLPEFSFCDLVNKEIKNKMDNVISQLDTKIFNEDLVFANDLSLTLKDEFRSRFKNVTKIMDCVQCDRCRLWGKIQTTGYATALKILFEINDADEFTKQHIVGKLTKYELIALLQTFGRLSESIESVNMFEKMYGKRLLER”, the “soluble on expression in E. coli” value is given as “soluble”.
To “GSHMASTPDKFNDGNLNIAYAKPTTQSSVDYNGDPNRAVDGNRNGNFNSGSVTHTRADNPSWWEVDLKKMDKVGLVKIYNRTDAETQRLSNFDVILYDNNRNEVAKKHVNNLSGESVSLDFKEKGARYIKVKLLTSGVPLSLAEVEVFRES” belongs “soluble”; to “GSHMATEPKAGRPSDYMPEVADDICSLLSSGESLLKVCKRPGMPDKSTVFRWLAKHEDFRDKYAKATEARADSIFEEIFEIADNAIPDAAEVAKARLRVDTRKWALARMNPRKYGDKVTNELVGKDGGAIQIETSPMSTLFGK”, “soluble”.
In the case of “GSHMGQNDLVKTLRMNYLFDFYQSLLTNKQRNYLELFYLEDYSLSEIADTFNVSRQAVYDNIRRTGDLVEDYEKKLELYQKFEQRREIYDEMKQHLSNPEQIQRYIQQLEDLE” it was “soluble”; in that of “GSHMKNSVSVDLPGSMKVLVSKSSNADGKYDLIATVDALELSGTSDKNNGSGVLEGVKADASKVKLTISDDLGQTTLEVFKSDGSTLVSKKVTSKDKSSTEEKFNEKGELSEKKITRADKSSTEEKFNEKGELSEKKITRADKSSTEEKFNEKGELSEKKITRADKSSTEEKFNEKGEVSEKIITRADGTRLEYTGIKSDGSGKAKEVLKGYVLEGTLTAEKTTLVVKEGTVTLSKNISKSGEVSVELNDTDSSAATKKTAAWNSGTSTLTITVNSKKTKDLVFTSSNTITVQQYDSNGTSLEGSAVEITKLDEIKNALK”, “soluble”; in that of “GSHMLITASSSKEYLPDLLLFWQNYEYWITNIGLYKTKQRDLTRTPANLDTDTEECMFWMNYLQKDQSFQLMNFAMENLGALYFGSIGDISELYLRVEQYWDRRADKNHSVDGKYWDALIWSVFTMCIYYMPVEKLAEIFSVYPLHEYLGSNKRLNWEDGMQLVMCQNFARCSLFQLKQCDFMAHPDIRLVQAYLILATTTFPYDEPLLANSLLTQCIHTFKNFHVDDFRPLLNDDPVESIAKVTLGRIFYRLCGCDYLQSGPRKPIALHTEVSSLLQHAAYLQDLPNVDVYREENSTEVLYWKIISLDRDLDQYLNKSSKPPLKTLDAIRRELDIFQYKVDSLEEDFRSNNSRFQKFIALFQISTVSWKLFKMYLIYYDTADSLLKVIHYSKVIISLIVNNFHAKSEFFNRHPMVMQTITRVVSFISFYQIFVESAAVKQLLVDLTELTANLPTIFGSKLDKLVYLTERLSKLKLLWDKVQLLDSGDSFYHPVFKILQNDIKIIELKNDEMFSLIKGLGSLVPLNKLRQESLLEEEDENNTEPSDFRTIVEEFQSEYNISDILS”, “soluble”.
Consider “GSHMSGKARLHYPVTRQGEQVDHYFGQAVADPYRWLEDDRSPETEAWVKAQNAVTQDYLAQIPYRAAIKEKLAASWNYAKEGAPFREGRYHYFFKNDGLQNQNVLWRQQEGKPAEVFLDPNTLSPDGTTALDQLSFSRDGRILAYSLSLAGSDWREIHLMDVESKQPLETPLKDVKFSGISWLGNEGFFYSSYDKPDGSELSARTDQHKVYFHRLGTAQEDDRLVFGAIPAQHHRYVGATVTEDDRFLLISAANSTSGNRLYVKDLSQENAPLLTVQGDLDADVSLVDNKGSTLYLLTNRDAPNRRLVTVDAANPGPAHWRDLIPERQQVLTVHSGSGYLFAEYMVDATARVEQFDYEGKRVREVALPGLGSVSGFNGKHDDPALYFGFENYAQPPTLYRFEPKSGAISLYRASAAPFKPEDYVSEQRFYQSKDGTRVPLIISYRKGLKLDGSNPTILYGYGGFDVSLTPSFSVSVANWLDLGGVYAVANLRGGGEYGQAWHLAGTQQNKQNVFDDFIAAAEYLKAEGYTRTDRLAIRGGSNGGLLVGAVMTQRPDLMRVALPAVGVLDMLRYHTFTAGTGWAYDYGTSADSEAMFDYLKGYSPLHNVRPGVSYPSTMVTTADHNDRVVPAHSFKFAATLQADNAGPHPQLIRIETNAGHGAGTPVAKLIEQSADIYAFTLYEMGYRELPRQP”, for which the “soluble on expression in E. coli” value is recorded as “soluble”.
In the case of “GSHMTREMRILILGLDGAGKTTILYRLQVGEVVTTIPTIGFNVETVTYKNLKFQVWDLGGLTSIRPYWRCYYSNTDAVIYVVDSCDRDRIGISKSELVAMLEEEELRKAILVVFANKQDMEQAMTSSEMANSLGLPALKDRKWQIFKTSATKGTGLDEAMEWLVETLKSRQ”, the “soluble on expression in E. coli” value was “soluble”.
Turning to “GSHSMRYFYTAVSRPGRGEPHFIAVGYVDDTQFVRFDSDAASPRGEPRAPWVEQEGPEYWDRETQKYKRQAQTDRVSLRNLRGYYNQSEAGSHIIQRMYGCDVGPDGRLLRGYDQYAYDGKDYIALNEDLRSWTAADTAAQITQRKWEAAREAEQLRAYLEGLCVEWLRRYLKNGKETLQRAEHPKTHVTHHPVSDHEATLRCWALGFYPAEITLTWQWDGEDQTQDTELVETRPAGDGTFQKWAAVVVPSGEEQRYTCHVQHEGLPEPLTLRWEPSS”, the “soluble on expression in E. coli” value is “soluble”.
For the sequence “GSKKSRLWVDRSGTFKVDAEFIGCAKGKIHLHKANGVKIAVAADKLSNEDLAYVEKITGFSLEKFKAN”, the “soluble on expression in E. coli” value is “soluble”.
